This assay deals with T1, His-GSK3β (UniProt P49841 1-420).
T1 construct: GSK3β, recombinant protein of the GST pull-down; The reagents list a bought recombinant human GSK3β protein (active) (Abcam ab60863); also called recombinant His-GSK3β; source: recombinant
The assay can be described thus: pull-down; GST pull-down with recombinant GST-SIRT7 and His-GSK3β. As to conditions: both partners purified.

T1 sequence (P49841 whole entry): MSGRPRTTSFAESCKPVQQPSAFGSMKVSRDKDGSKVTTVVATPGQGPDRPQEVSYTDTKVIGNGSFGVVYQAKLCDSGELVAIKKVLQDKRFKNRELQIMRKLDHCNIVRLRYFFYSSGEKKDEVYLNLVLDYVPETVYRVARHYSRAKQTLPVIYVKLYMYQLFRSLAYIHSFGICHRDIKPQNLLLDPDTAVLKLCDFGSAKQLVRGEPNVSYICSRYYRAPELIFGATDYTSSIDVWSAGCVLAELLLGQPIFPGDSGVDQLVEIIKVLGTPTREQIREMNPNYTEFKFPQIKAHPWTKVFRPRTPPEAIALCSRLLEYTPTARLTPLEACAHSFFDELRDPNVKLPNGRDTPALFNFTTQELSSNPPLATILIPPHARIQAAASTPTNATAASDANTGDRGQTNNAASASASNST

B1: GST-SIRT7 (natural protein, human, UniProt Q9NRC8 1-400, looked up)
chain: MAAGGLSRSERKAAERVRRLREEQQRERLRQVSRILRKAAAERSAEEGRLLAESADLVTELQGRSRRREGLKRRQEEVCDDPEELRGKVRELASAVRNAKYLVVYTGAGISTAASIPDYRGPNGVWTLLQKGRSVSAADLSEAEPTLTHMSITRLHEQKLVQHVVSQNCDGLHLRSGLPRTAISELHGNMYIEVCTSCVPNREYVRVFDVTERTALHRHQTGRTCHKCGTQLRDTIVHFGERGTLGQPLNWEAATEAASRADTILCLGSSLKVLKKYPRLWCMTKPPSRRPKLYIVNLQWTPKDDWAALKLHGKCDDVMRLLMAELGLEIPAYSRWQDPIFSLATPLRAGEEGSHSRKSLCRSREEAPPGDRGAPLSSAPILGGWFGRGCTKRTKRKKVT
notes: SIRT7 cloned into pGEX-4T-3; also called GST-SIRT7-WT; recombinant GST-SIRT7; source: E. coli BL21, purified (glutathione agarose)
As to B1, the binding result is “binds”.

The record behind these values is publication PMC8387475, “Combined intermittent fasting and ERK inhibition enhance the anti-tumor effects of chemotherapy via the GSK3β-SIRT7 axis” (Nature Communications, 2021).
